Test results published in US20140348747A1.
Changes are numbered by the printed parent chain. “And” between values parts separate entries of the source, which are not always exact repeats. Equal values may be shown once. Read-outs that look alike come from different tables or passages of the source.

Assays:
Conditions in all cases: modification not given
[1] = biological target: T1, H57R
T1 chain: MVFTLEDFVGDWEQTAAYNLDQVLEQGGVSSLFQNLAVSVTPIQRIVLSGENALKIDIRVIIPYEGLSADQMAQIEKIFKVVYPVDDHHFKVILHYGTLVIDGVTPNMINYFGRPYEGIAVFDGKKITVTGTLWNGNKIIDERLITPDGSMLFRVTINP

[2] = biological target: T2, NLpoly 11S (12-A51T)
T2 chain: T1 chain with F33L, L48R, R59H, K77E, I78V, H95P, I109L, P159S

[3] = biological target: T3, VTGWR
T3 chain: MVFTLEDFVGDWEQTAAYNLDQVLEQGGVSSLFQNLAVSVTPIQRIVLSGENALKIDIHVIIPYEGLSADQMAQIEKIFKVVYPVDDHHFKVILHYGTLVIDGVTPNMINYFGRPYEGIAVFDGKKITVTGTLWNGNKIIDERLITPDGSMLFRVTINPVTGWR

[4] = biological target: T4, wild-type non-luminescent polypeptide (WT fragment of residues 1-156 of NanoLuc)
T4 chain: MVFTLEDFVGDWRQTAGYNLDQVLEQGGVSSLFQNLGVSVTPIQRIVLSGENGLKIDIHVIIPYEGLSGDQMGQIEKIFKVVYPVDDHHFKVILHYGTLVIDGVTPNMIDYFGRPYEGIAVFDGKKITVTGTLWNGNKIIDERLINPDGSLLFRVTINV

[5] = biological target: T5, VTGW
T5 chain: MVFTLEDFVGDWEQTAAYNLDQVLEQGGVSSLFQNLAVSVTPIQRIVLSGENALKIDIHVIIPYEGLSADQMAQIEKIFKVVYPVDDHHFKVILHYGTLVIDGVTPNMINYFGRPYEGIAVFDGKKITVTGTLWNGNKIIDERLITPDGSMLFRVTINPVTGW

[6] = biological target: VT
[7] = biological target: AA
[8] = biological target: T6, P157S
T6 chain: T1 chain with R59H, P159S

[9] = biological target: 5P+V
[10] = biological target: T7, D2
T7 chain: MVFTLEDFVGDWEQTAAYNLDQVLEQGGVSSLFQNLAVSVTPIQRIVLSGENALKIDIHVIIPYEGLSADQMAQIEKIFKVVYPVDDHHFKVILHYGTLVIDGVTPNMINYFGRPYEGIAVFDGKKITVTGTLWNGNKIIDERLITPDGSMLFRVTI

[11] = biological target: 5P+VT
[12] = biological target: T4, wild-type non-luminescent polypeptide …
[13] = biological target: T8, L46R
T8 chain: T1 chain with L48R, R59H

[14] = biological target: T9, H93P
T9 chain: T1 chain with R59H, H95P

[15] = biological target: T10, V58A
T10 chain: T1 chain with R59H, V60A

[16] = biological target: T11, F31L
T11 chain: T1 chain with F33L, R59H

[17] = biological target: T12, F31L+H93P
T12 chain: T1 chain with F33L, R59H, H95P

[18] = biological target: VA
[19] = biological target: T13, P157H
T13 chain: T1 chain with R59H, P159H

[20] = biological target: T14, A51T
T14 chain: T1 chain with A53T, R59H

[21] = biological target: T4, wild-type non-luminescent polypeptide …
[22] = biological target: 5P+VTG

- Kd [1]: 0.0141 µM
- Kd [2]: 26 µM
- Kd [3]: 0.0133 µM
- Kd [4]: 0.341 µM and 1.05 µM
- Kd [5]: 0.013 µM
- Kd [6]: 0.0131 µM
- Kd [7]: 0.0113 µM
- Kd [8]: 0.0152 µM
- Kd [9]: 0.0249 µM
- Kd [10]: 0.0102 µM
- Kd [11]: 0.0254 µM
- Kd [12]: 1750 µM
- Kd [13]: 0.0184 µM
- Kd [14]: 0.024 µM
- Kd [15]: 0.0152 µM
- Kd [16]: 0.0148 µM
- Kd [17]: 0.0172 µM
- Kd [18]: 0.0146 µM
- Kd [19]: 0.0179 µM
- Kd [20]: 0.0188 µM
- Kd [21]: 0.784 µM
- Kd [22]: 0.026 µM
Binder: NVSGWRLFKKISN [NLpep78]
